One data set deals with SNAP_GLP-1R (UniProt P43220).
In data set [1] the target is T1, human GHS-R1a (Homo sapiens, UniProt Q92847).
T1 construct: expressed in transfected cells; host or cells: HEK293T cells
Put plainly: Inositol phosphate (IP-1) accumulation assay, IP-One HTRF. The class given is cell-based. Particulars: HEK293T-GHS-R1a cells; mean ± SEM, n = 2 assays in triplicate. Background: TR-FRET usually uses a lanthanide donor and a delayed reading to cut background.

Data set [2] relates to MIN6 cells. Nature of the data set: Necrosis assay (propidium iodide/calcein). The class given is cell-based. Particulars: 10 mM BME, 60 min incubation. The method, then: For quantification of necrosis, MIN6 cells were labeled with 5 μM calcein-AM and 5 μM propidium iodide for 30 min. Cells were imaged in HEPES-bicarbonate buffer using the Crest X-Light spinning disk system, and excitation was performed at λ = 458–482 nm and λ = 543–558 nm for calcein and propidium iodide, respectively. Emitted signals were detected at λ = 500–550 nm and λ = 602–662 nm for calcein and propidium iodide, respectively. Total area was quantified using the threshold plugin for Fiji and expressed as the ratio propidium iodide/calcein, as described.[70]

The subject of data set [3] is MIN6 cells. Nature of the data set: Apoptosis assay (cleaved caspase 3 immunostaining). The class given is cell-based. Particulars: 10 mM BME, 60 min incubation, n = 3 experiments. The method, then:
For quantification of apoptosis, MIN6 cells were incubated with 10 mM BME for the indicated times and fixed in 4% paraformaldehyde. Immunostaining was performed using an antibody against Cleaved Caspase 3 (CC3; 1:400; #9661, Cell Signaling Technology), before secondary goat antirabbit Alexa Fluor 633 (1:1000) and Hoechst 33342 staining. Cells were imaged using a Zeiss LSM 880 confocal microscope, with excitation delivered at λ = 405 nm and λ = 633 nm. Emitted signals were collected at λ = 410–550 nm and λ = 641–695 nm for Hoechst 33342 and Alexa Fluor 633, respectively. Total area was quantified using the threshold plugin for Fiji, and results were expressed as the ratio CC3/Hoechst, as described.[69]

For data set [4], the target named is T2, human GHS-R1a (human, UniProt Q92847 1-366). Nature of the data set: AlphaScreen or HTRF; Tag-lite HTRF competition (Cisbio) on HEK293T-GHS-R1a cells; Ki calculated from binding curves; the labelled tracer is not named; as in ref. 72; n = 2 assays in triplicate. Particulars: one partner purified.
T2 sequence (Q92847 whole entry): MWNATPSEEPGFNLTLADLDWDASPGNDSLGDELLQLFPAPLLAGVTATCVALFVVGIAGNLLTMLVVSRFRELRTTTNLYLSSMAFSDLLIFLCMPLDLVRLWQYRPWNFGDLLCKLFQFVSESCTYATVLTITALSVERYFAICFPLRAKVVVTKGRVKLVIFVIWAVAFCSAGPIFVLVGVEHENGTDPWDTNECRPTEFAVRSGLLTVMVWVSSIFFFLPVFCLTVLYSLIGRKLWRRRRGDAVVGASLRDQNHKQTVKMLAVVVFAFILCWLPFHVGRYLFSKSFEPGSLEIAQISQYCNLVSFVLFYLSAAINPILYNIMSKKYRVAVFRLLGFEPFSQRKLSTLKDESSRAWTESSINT
In data set [5] the target is T2, human GHS-R1a. Nature of the data set: cell-based or functional assay.

Consider five molecules from paper PMC5832994 (ACS Central Science, 2018).

Where no end group is shown, it is not given here. Side-chain parts run from the residue outwards. The star is where a group is joined. PEG4 (disulfide) = PEG4 chain joined to the cysteine by a disulfide bond, carrying benzylguanine; benzylguanine = O6-benzylguanine; Octanoyl = CCCCCCCC(=O)*

Chain of SNAP_GLP-1R (P43220 whole entry): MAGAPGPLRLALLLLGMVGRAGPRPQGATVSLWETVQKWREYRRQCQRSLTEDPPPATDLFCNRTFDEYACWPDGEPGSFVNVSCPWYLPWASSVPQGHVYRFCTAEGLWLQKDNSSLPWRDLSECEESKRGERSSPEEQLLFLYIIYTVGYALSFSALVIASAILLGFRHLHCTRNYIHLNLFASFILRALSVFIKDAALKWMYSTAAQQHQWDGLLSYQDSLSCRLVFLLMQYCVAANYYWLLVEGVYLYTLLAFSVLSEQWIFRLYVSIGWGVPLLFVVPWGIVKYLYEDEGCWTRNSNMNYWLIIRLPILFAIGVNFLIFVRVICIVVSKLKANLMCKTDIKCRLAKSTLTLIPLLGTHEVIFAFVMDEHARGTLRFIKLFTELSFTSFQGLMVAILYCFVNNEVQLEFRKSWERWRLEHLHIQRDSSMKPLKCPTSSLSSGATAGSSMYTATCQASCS
T1 sequence (Q92847 whole entry): as the sequence (Q92847 whole entry) above

Molecule S39C-Ex4 (peptide) returned an EC50 of cAMP accumulation (LANCE TR-FRET, 30 min) in YFP-AD293-SNAP GLP-1R cells with SNAP_GLP-1R of 0.0988 nM.

One may read the EC50 as the concentration at which the effect is half-maximal. Lower therefore signals greater potency. Turning to `CCCCCCCC(=O)OC[C@H](NC(=O)[C@H](CO)NC(=O)CN)C(=O)N[C@@H](Cc1ccccc1)C(=O)N[C@@H](CC(C)C)C(=O)N[C@@H](CO)C(=O)N1CCC[C@H]1C(=O)N[C@@H](CCC(=O)O)C(=O)N[C@@H](Cc1c[nH]cn1)C(=O)N[C@@H](CCC(N)=O)C(=O)N[C@@H](CCCNC(=N)N)C(=O)N[C@H](C(=O)N[C@@H](CCC(N)=O)C(=O)N[C@@H](CCC(N)=O)C(=O)N[C@@H](CCCNC(=N)N)C(=O)N[C@@H](CCCCN)C(=O)N[C@@H](CCC(=O)O)C(=O)N[C@@H](CO)C(=O)N[C@@H](CCCCN)C(=O)N[C@@H](CCCCN)C(=O)N1CCC[C@H]1C(=O)N1CCC[C@H]1C(=O)N[C@@H](C)C(=O)N[C@@H](CCCCN)C(=O)N[C@@H](CC(C)C)C(=O)N[C@@H](CCC(N)=O)C(=O)N1CCC[C@H]1C(=O)N[C@@H](CCCNC(=N)N)C(=O)NCC(=O)NCC(=O)N[C@@H](CS)C(=O)NCC(=O)O)C(C)C` [ghrelinGGCG], the concentration giving a half-maximal response (EC50) at human GHS-R1a [1] turned out to be 11.1 ± 0.4 nM.

As for `OCCS` [BME, beta-mercaptoethanol], the necrosis entry in the data set on MIN6 cells [2] is “did not display significant signs of necrosis”. Further, the “apoptosis (cleaved caspase 3)” value with MIN6 cells [3] was “did not display significant signs of necrosis (Figure S4a) or apoptosis”. What is called Ki is a measure of affinity in units of concentration, obtained from inhibition or displacement. Consider GSS(Octanoyl)FLSPEHQRVQQRKESKKPPAKLQPRGGCG [ghrelinGGCG], for which the inhibitory constant (Ki) with human GHS-R1a [4] is 19.6 nM. In the data set with human GHS-R1a [5], the “EC50 of IP-1 accumulation (IP-One HTRF kit) in HEK293T-GHS-R1a cells” value was determined as 11.2 nM. For GSS(Octanoyl)FLSPEHQRVQQRKESKKPPAKLQPRGGC([PEG4 (disulfide)-benzylguanine])G [GhrelON], in that order: 6.1 nM and 5.5 nM.
